US20260250322A1, “NEW PEPTIDES AS SELECTIVE IL-23 RECEPTOR INHIBITORS” (SANOFI, priority 2023, published 2026)
Numbered stars: 1 amine (or outer) side, 2 acyl side, 3 side chain; on linkers, the order of the positions; unused ones are H or OH. Bridge positions count the residues as written; N and C are the ends. Square brackets hold non-standard residues; d marks the D form. Peptide text beside a SMILES is read from it. Tyr(Me) = Yme = 4-methoxy-L-phenylalanine (O-methyl-tyrosine), COc1ccc(C[C@H](N[*:1])C(=O)[*:2])cc1; 1Nal = N[C@@H](Cc1cccc2ccccc12)C(=O)O; 2Nal = N[C@@H](Cc1ccc2ccccc2c1)C(=O)O; Orn = NCCC[C@H](N)C(=O)O; Thp = NC1(C(=O)O)CCOCC1; Aib = CC(C)(N)C(=O)O

T1: IL-23 receptor on the surface of HEK-Blue IL-23 cells (UniProt Q5VWK5 24-629, limits assumed)
T1 sequence (looked up): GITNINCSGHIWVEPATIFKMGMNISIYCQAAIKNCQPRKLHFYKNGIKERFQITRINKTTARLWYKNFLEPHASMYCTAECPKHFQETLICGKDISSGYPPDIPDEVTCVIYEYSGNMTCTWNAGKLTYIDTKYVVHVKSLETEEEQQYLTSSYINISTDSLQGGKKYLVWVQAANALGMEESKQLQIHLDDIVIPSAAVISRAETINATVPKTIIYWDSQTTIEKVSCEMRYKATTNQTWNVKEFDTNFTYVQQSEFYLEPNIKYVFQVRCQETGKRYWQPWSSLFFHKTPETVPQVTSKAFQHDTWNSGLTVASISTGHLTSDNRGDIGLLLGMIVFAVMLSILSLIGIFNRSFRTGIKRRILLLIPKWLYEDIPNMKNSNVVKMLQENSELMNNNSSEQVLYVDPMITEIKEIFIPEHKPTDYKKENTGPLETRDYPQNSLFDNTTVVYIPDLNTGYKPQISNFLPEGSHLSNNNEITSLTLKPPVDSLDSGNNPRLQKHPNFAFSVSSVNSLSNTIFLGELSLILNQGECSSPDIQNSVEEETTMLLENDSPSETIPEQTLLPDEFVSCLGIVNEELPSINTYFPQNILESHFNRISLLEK

B1: peptide compound SEQ ID NO: 31 (peptide)
peptide: Ac-[dK]NTWQV[Tyr(Me)][2Nal][Aib]DNN-NH2
modifications: lactam 1-10
SMILES: COc1ccc(C[C@@H]2NC(=O)[C@H](C(C)C)NC(=O)[C@H](CCC(N)=O)NC(=O)[C@H](Cc3c[nH]c4ccccc34)NC(=O)[C@H]([C@@H](C)O)NC(=O)[C@H](CC(N)=O)NC(=O)[C@H](NC(C)=O)CCCCNC(=O)C[C@@H](C(=O)N[C@@H](CC(N)=O)C(=O)N[C@@H](CC(N)=O)C(N)=O)NC(=O)C(C)(C)NC(=O)[C@H](Cc3ccc4ccccc4c3)NC2=O)cc1
B2: peptide compound SEQ ID NO: 6 (peptide)
peptide: Ac-DNTWQR[Tyr(Me)][2Nal][Aib][Orn]NN-NH2
modifications: lactam 1-10
SMILES: COc1ccc(C[C@@H]2NC(=O)[C@H](CCCNC(=N)N)NC(=O)[C@H](CCC(N)=O)NC(=O)[C@H](Cc3c[nH]c4ccccc34)NC(=O)[C@H]([C@@H](C)O)NC(=O)[C@H](CC(N)=O)NC(=O)[C@@H](NC(C)=O)CC(=O)NCCC[C@@H](C(=O)N[C@@H](CC(N)=O)C(=O)N[C@@H](CC(N)=O)C(N)=O)NC(=O)C(C)(C)NC(=O)[C@H](Cc3ccc4ccccc4c3)NC2=O)cc1
B3: peptide compound SEQ ID NO: 5 (peptide)
peptide: Ac-[dK]NTWQR[Tyr(Me)][2Nal][Aib]ENN-NH2
modifications: lactam 1-10
SMILES: COc1ccc(C[C@@H]2NC(=O)[C@H](CCCNC(=N)N)NC(=O)[C@H](CCC(N)=O)NC(=O)[C@H](Cc3c[nH]c4ccccc34)NC(=O)[C@H]([C@@H](C)O)NC(=O)[C@H](CC(N)=O)NC(=O)[C@H](NC(C)=O)CCCCNC(=O)CC[C@@H](C(=O)N[C@@H](CC(N)=O)C(=O)N[C@@H](CC(N)=O)C(N)=O)NC(=O)C(C)(C)NC(=O)[C@H](Cc3ccc4ccccc4c3)NC2=O)cc1
B4: peptide compound SEQ ID NO: 8 (peptide)
peptide: Ac-[dK]NTWQA[Tyr(Me)][1Nal][Aib]DNN-NH2
modifications: lactam 1-10
SMILES: COc1ccc(C[C@@H]2NC(=O)[C@H](C)NC(=O)[C@H](CCC(N)=O)NC(=O)[C@H](Cc3c[nH]c4ccccc34)NC(=O)[C@H]([C@@H](C)O)NC(=O)[C@H](CC(N)=O)NC(=O)[C@H](NC(C)=O)CCCCNC(=O)C[C@@H](C(=O)N[C@@H](CC(N)=O)C(=O)N[C@@H](CC(N)=O)C(N)=O)NC(=O)C(C)(C)NC(=O)[C@H](Cc3cccc4ccccc34)NC2=O)cc1
B5: peptide compound SEQ ID NO: 41 (peptide)
peptide: Ac-KNTWQR[Tyr(Me)][2Nal][Thp]DNN-NH2
modifications: lactam 1-10
SMILES: COc1ccc(C[C@@H]2NC(=O)[C@H](CCCNC(=N)N)NC(=O)[C@H](CCC(N)=O)NC(=O)[C@H](Cc3c[nH]c4ccccc34)NC(=O)[C@H]([C@@H](C)O)NC(=O)[C@H](CC(N)=O)NC(=O)[C@@H](NC(C)=O)CCCCNC(=O)C[C@@H](C(=O)N[C@@H](CC(N)=O)C(=O)N[C@@H](CC(N)=O)C(N)=O)NC(=O)C3(CCOCC3)NC(=O)[C@H](Cc3ccc4ccccc4c3)NC2=O)cc1
B6: peptide compound SEQ ID NO: 3 (peptide)
peptide: Ac-[dK]NTWQR[Tyr(Me)][2Nal][Aib]DNN-NH2
modifications: lactam 1-10
SMILES: COc1ccc(C[C@@H]2NC(=O)[C@H](CCCNC(=N)N)NC(=O)[C@H](CCC(N)=O)NC(=O)[C@H](Cc3c[nH]c4ccccc34)NC(=O)[C@H]([C@@H](C)O)NC(=O)[C@H](CC(N)=O)NC(=O)[C@H](NC(C)=O)CCCCNC(=O)C[C@@H](C(=O)N[C@@H](CC(N)=O)C(=O)N[C@@H](CC(N)=O)C(N)=O)NC(=O)C(C)(C)NC(=O)[C@H](Cc3ccc4ccccc4c3)NC2=O)cc1
B7: peptide compound SEQ ID NO: 7 (peptide)
peptide: Ac-[dK]NTWQL[Tyr(Me)][1Nal][Aib]DNN-NH2
modifications: lactam 1-10
SMILES: COc1ccc(C[C@@H]2NC(=O)[C@H](CC(C)C)NC(=O)[C@H](CCC(N)=O)NC(=O)[C@H](Cc3c[nH]c4ccccc34)NC(=O)[C@H]([C@@H](C)O)NC(=O)[C@H](CC(N)=O)NC(=O)[C@H](NC(C)=O)CCCCNC(=O)C[C@@H](C(=O)N[C@@H](CC(N)=O)C(=O)N[C@@H](CC(N)=O)C(N)=O)NC(=O)C(C)(C)NC(=O)[C@H](Cc3cccc4ccccc34)NC2=O)cc1
B8: peptide compound SEQ ID NO: 32 (peptide)
peptide: Ac-[dK]NTWQ[Aib][Tyr(Me)][2Nal][Aib]DNN-NH2
modifications: lactam 1-10
SMILES: COc1ccc(C[C@@H]2NC(=O)C(C)(C)NC(=O)[C@H](CCC(N)=O)NC(=O)[C@H](Cc3c[nH]c4ccccc34)NC(=O)[C@H]([C@@H](C)O)NC(=O)[C@H](CC(N)=O)NC(=O)[C@H](NC(C)=O)CCCCNC(=O)C[C@@H](C(=O)N[C@@H](CC(N)=O)C(=O)N[C@@H](CC(N)=O)C(N)=O)NC(=O)C(C)(C)NC(=O)[C@H](Cc3ccc4ccccc4c3)NC2=O)cc1

Each molecule was assayed against T1, IL-23 receptor on the surface of … (assay: cell-based or functional assay). Settings: not given.

Going from B1 to B2, the “Inhibition of IL-23 induced pSTAT3 (IC50 nM)” value (from here on “Inhibition”) rises from 128 nM to 366 nM.

Compared with B3, B4 is higher in “Inhibition” value: 432 nM for the first, 943 nM for the second.

Compared with B5, B6 is higher in “Inhibition” value: 221 nM for the first, 430 nM for the second.

First: B7
Second: B8
The “Inhibition” value of the first is higher: 850 nM for the first, 320 nM for the second.

These molecules were tested on IL-23 induced STAT3 signaling (assay: Inhibition of IL-23 induced STAT3 signaling in HEK-Blue IL-23 cells (SEAP reporter)). Settings: human IL-23 0.25 ng/ml, read-out: Inhibition of IL-23 induced pSTAT3 (IC50 nM).
Format: cell-based
Excerpt: HEK-Blue™ IL-23 cells (Invivogen) are designed for the detection of bioactive human (hIL-23) and murine IL-23 (mIL-23) by monitoring the activation of the STAT3 pathway. Binding of IL-23 to its receptor on the surface of HEK-Blue™ IL-23 cells triggers a signaling cascade leading to the activation of STAT3 and the subsequent production of secreted embryonic alkaline phosphatase (SEAP). This can be readily assessed using QUANTI-Blue™ Solution, a SEAP detection reagent.
HEK-Blue™ IL-23 cells were cultured as described by Invivogen.
On the first day of assay 10 μL of the HEK-Blue IL-23 cell suspension (final concentration: 10,000 cells/well) and 10 μl of serially diluted compound solutions were dispensed into a 384-well assay plate. After pre-incubation of the reaction mixtures at 37° C./5% CO2/95% humidity for 60 minutes, 10 μl of the humanIL-23 cytokine (final concentration: 0.25 ng/ml) was added to each well for the STAT3 signaling activation. The plate was incubated overnight at 37° C./5% CO2/95% humidity.
On the second day 20 μl per well of Quanti-Blue detection solution (prepared according to the manufacture instruction) was dispensed into a new 384-well plate and followed by the transfer of 5 μl supernatant of the overnight incubated cell/sample mixtures. After incubation of 45 min at room temperature signals were measured with PHERAstar (BMG) at OD 620-655 nm.
Dose response data were fitted with XLfit.

Going from `CC(=O)N[C@@H]1CCCCNC(=O)C[C@@H](C(=O)N[C@@H](CC(N)=O)C(=O)N[C@@H](CC(N)=O)C(N)=O)NC(=O)C(C)(C)NC(=O)[C@H](Cc2cccc3ccccc23)NC(=O)[C@H](Cc2ccc(O)cc2)NC(=O)[C@H](CCCNC(=N)N)NC(=O)[C@H](CCC(N)=O)NC(=O)[C@H](Cc2c[nH]c3ccccc23)NC(=O)[C@H]([C@@H](C)O)NC(=O)[C@H](CC(N)=O)NC1=O` [compound 14] (Ac-[dK]NTWQRY[1Nal][Aib]DNN-NH2; lactam 1-10) to `COc1ccc(C[C@@H]2NC(=O)[C@H](CCCNC(=N)N)NC(=O)[C@H](CCC(N)=O)NC(=O)[C@H](Cc3c[nH]c4ccccc34)NC(=O)[C@H]([C@@H](C)O)NC(=O)[C@H](CC(N)=O)NC(=O)[C@H](NC(C)=O)CCCCNC(=O)CC[C@@H](C(=O)N[C@@H](CC(N)=O)C(=O)N[C@@H](CC(N)=O)C(N)=O)NC(=O)C(C)(C)NC(=O)[C@H](Cc3cccc4ccccc34)NC2=O)cc1` [compound 16] (Ac-[dK]NTWQRY(Me)[1Nal][Aib]ENN-NH2; lactam 1-10), the IC50 rises from 1380 nM to 8010 nM (5.8-fold). The first is the more potent here.

First: COc1ccc(C[C@@H]2NC(=O)[C@H](CCCNC(=N)N)NC(=O)[C@H](CCC(N)=O)NC(=O)[C@H](Cc3c[nH]c4ccccc34)NC(=O)[C@H]([C@@H](C)O)NC(=O)[C@H](CC(N)=O)NC(=O)[C@H](NC(C)=O)CCCCNC(=O)C[C@@H](C(=O)N[C@@H](CC(N)=O)C(=O)N[C@@H](CC(N)=O)C(N)=O)NC(=O)[C@H](CCCCNC(C)=O)NC(=O)[C@H](Cc3cccc4ccccc34)NC2=O)cc1 [compound 17] (Ac-[dK]NTWQRY(Me)[1Nal]K(Ac)DNN-NH2; lactam 1-10)
Second: COc1ccc(C[C@@H]2NC(=O)[C@H](CCCNC(=N)N)NC(=O)[C@H](CCC(N)=O)NC(=O)[C@H](Cc3c[nH]c4ccccc34)NC(=O)[C@H]([C@@H](C)O)NC(=O)[C@H](CC(N)=O)NC(=O)[C@H](NC(C)=O)CCCCNC(=O)C[C@@H](C(=O)N[C@@H](CC(N)=O)C(=O)N[C@@H](CC(N)=O)C(N)=O)NC(=O)[C@H](CCCCNC(C)=O)NC(=O)[C@H](Cc3ccc4ccccc4c3)NC2=O)cc1 [compound 28] (Ac-[dK]NTWQRY(Me)[2Nal]K(Ac)DNN-NH2; lactam 1-10)
The IC50 of the first is 2.6-fold higher: 5650 nM for the first, 2210 nM for the second.

`COc1ccc(C[C@@H]2NC(=O)[C@H](CCCNC(=N)N)NC(=O)[C@H](CCC(N)=O)NC(=O)[C@H](Cc3c[nH]c4ccccc34)NC(=O)[C@H]([C@@H](C)O)NC(=O)[C@H](CC(N)=O)NC(=O)[C@H](NC(C)=O)CCCCNC(=O)C[C@@H](C(=O)N[C@@H](CC(N)=O)C(=O)N[C@@H](CC(N)=O)C(N)=O)NC(=O)[C@H](CCC(N)=O)NC(=O)[C@H](Cc3cccc4ccccc34)NC2=O)cc1` [compound 19] (Ac-[dK]NTWQRY(Me)[1Nal]QDNN-NH2; lactam 1-10) and `COc1ccc(C[C@@H]2NC(=O)[C@H](CCCNC(=N)N)NC(=O)[C@H](CCC(N)=O)NC(=O)[C@H](Cc3c[nH]c4ccccc34)NC(=O)[C@H]([C@@H](C)O)NC(=O)[C@H](CC(N)=O)NC(=O)[C@H](NC(C)=O)CCCCNC(=O)C[C@@H](C(=O)N[C@@H](CC(N)=O)C(N)=O)NC(=O)C(C)(C)NC(=O)[C@H](Cc3ccc4ccccc4c3)NC2=O)cc1` [compound 26] (Ac-[dK]NTWQRY(Me)[2Nal][Aib]DN-NH2; lactam 1-10) are within 1.5-fold of each other in IC50: 9600 nM for the first, 8110 nM for the second.
